Several values for one entry are separate records, joined by “and”; a condition that tells them apart may be missing. Equal values may be shown once. Residues, ends and D or L forms follow the SMILES beside them. *: point of attachment. X1 = CC1(C)C(/C=C/C=C/C=C/C=C2/N(CCCCCC(=O)NCCN3C(=O)CC(*)C3=O)c3ccc4ccccc4c3C2(C)C)=[N+](CCCCS(=O)(=O)[O-])c2ccc3ccccc3c21
Tests used:
[1] = Blood clearance of ICG-pHLIP after single tail vein injection; format: in vivo, mouse; details: for Concentration in blood, Mean ± St. D.: 5 animals; for Concentration in blood, Mean ± St. D. / Concentration in blood: 2.5 nmol tail vein; for Concentration in blood: individual animal, listed as ICG-Var3
Experimental: BALB/cAcNHsd mice ranging in age from 5 to 6 weeks obtained from Envigo RMS Inc were used in the study. Mouse mammary 4T1 cancer cells were subcutaneously implanted in the right flank (8×10^5 cells/0.1 mL/flank) of adult female mice. Triple negative 4T1 tumor model closely mimics stage IV of human breast cancer. When tumors reached 5-6 mm in diameter, single tail vein injections of 2.5 nmol (or 0.5 mg/kg) of ICG-pHLIP in sterile PBS with 5% DMSO or 5% Ethanol (volume of the injection was 100 μl) were performed. The whole body and ex vivo imaging was performed using a Stryker 1588 AIM clinical imaging system with L10 AIM Light Source, 1588 AIM Camera using a 10 mm or 5 mm scope.
Animals were euthanized at time points: 5 min, 1 hr, 2 hrs, 4 hrs, 6 hrs, 16 hrs, 26 hrs and 48 hrs. […] 100 μl of blood was collected immediately after euthanasia and mixed with 12.5 μl of citrate-dextrose anticoagulant solution (kept at 4° C.), and necropsy was performed. Tumor, muscles, skin, heart, lungs, liver, spleen, kidneys, brain, pancreas, bone, stomach, small and large intestines were collected, imaged immediately after collection, weighed, and fast frozen in liquid nitrogen.
Blood samples mixed with of anti-coagulant solution were placed in 384 well plates (MatTek, glass bottom) (15 μL per well) and imaged on an Odyssey IR scanner (Li-Cor Biosciences). […] The same amounts (15 μL) of blood samples were placed in 384 well plate and imaged together with all other blood samples. The digital images were processed using the Image J program to calculate mean fluorescence intensity. The calibration curve (known concentration of ICG-pHLIP in blood samples vs intensity) was constructed to calculate the amount of ICG-pHLIP in blood samples collected from the mice at different times after construct administration.

red blood cells (RBCs) = assay: Hemolysis assay with ICG-pHLIP; format: cell-based, human; details: 0.075 to 1.2 nmol in 150 μL, 37° C., 2 hours
Experimental: Single donor human whole blood was purchased from Innovative Research. Red blood cells (RBCs) were collected by centrifugation of whole blood at 2000 rpm for 10 minutes followed by washing three times with Dulbecco's PBS (DPBS) and re-suspended in DPBS at a concentration of 7.5% (v:v). Varying concentrations of ICG-pHLIP (0.075, 0.15, 0.3, 0.6, 1.2 nmol) in DPBS were added to RBCs to give a 5% RBC suspension (total volume of solution with RBC was 150 μL). The resultant mixtures were incubated at 37° C. for 2 hours and then centrifuged at 2000 rpm for 10 min. Hemolysis was assessed by the release of hemoglobin, which was monitored by measuring the absorbance at 450 nm of the supernatant hemoglobin. DPBS was used as negative controls. As positive controls, which result in 100% lysis of RBCs, we used i) water and ii) 10% of Triton X-100. The percentage of hemolysis was calculated as follows: […]
where, ODTest, ODNC, and ODPC are the optical density reading (absorbance) values of the test sample, negative control and positive control, respectively. The assay was performed in triplicate. The amount of RBC lysis was less than 2% in all samples. For the reference, in mice study 2.5 nmol of ICG pHLIP® is injected per mouse (a 20 g mouse has about 1.2 mL of blood), or 2.08 nmol/ml (the dose will be much lower in humans), while in hemolysis assay the maximum tested concentration was 8 nmol/ml.

in vivo = details: female, BALB/cAcNHsd, mouse, iv, 2.5 nmol, 4 hours post injection, constant up to 16 hours, rough estimation, read-out: amount of ICG-pHLIP in tumors
Experimental: The fluorescence signals in organs and tissue were also measured in the tissue/organ homogenates and compared with the signals from the control tissue/organ homogenates (collected from control mice) mixed with known amounts of ICG-pHLIP. About 100 mg of tissue (tumor, liver or kidney) were homogenized with 2.5× (about 250 μL) volumes of DMSO using BioMasher II disposable homogenizers (DiagnoCine LLC). 30 μl of homogenate was placed into 384 well plate and imaged using an Odyssey IR scanner. Tumor, liver or kidney homogenates of control mice, mixed with known concentrations of ICG-pHLIP were used to establish the calibration curve. First, note that the fluorescence signals obtained on the control tumor, liver and kidney mixed with the known amounts of ICG-pHLIP were the same. Second, the course of signal changes in tumor, liver and kidney (data not shown) was in excellent correlation with the course of the kinetics presented on FIGS. 18A-F. It is rather difficult to establish precisely the amount of ICG-pHLIP in the tissue and organ samples; however, rough estimations can be made using the calibration curve. […] At 26 hours, when the blood is cleared and the fluorescence signal in all organs is minimal, the contrast between tumor and surrounding tissue is very significant.

## CC(C)C[C@H](NC(=O)[C@H](Cc1ccc(O)cc1)NC(=O)[C@H](C)NC(=O)[C@H](CCCNC(=N)N)NC(=O)[C@H](Cc1c[nH]c2ccccc12)NC(=O)[C@@H]1CCCN1C(=O)[C@H](CC(N)=O)NC(=O)[C@H](CCC(N)=O)NC(=O)[C@H](CC(=O)O)NC(=O)[C@H](CC(=O)O)NC(=O)[C@H](CSC1CC(=O)N(CCNC(=O)CCCCCN2/C(=C/C=C/C=C/C=C/C3=[N+](CCCCS(=O)(=O)[O-])c4ccc5ccccc5c4C3(C)C)C(C)(C)c3c2ccc2ccccc32)C1=O)NC(=O)[C@H](C)N)C(=O)N[C@@H](CC(=O)O)C(=O)N[C@@H](CC(C)C)C(=O)N[C@@H](CC(C)C)C(=O)N[C@@H](Cc1ccccc1)C(=O)N1CCC[C@H]1C(=O)N[C@H](C(=O)N[C@@H](CC(=O)O)C(=O)N[C@H](C(=O)N[C@@H](CC(C)C)C(=O)N[C@@H](CC(C)C)C(=O)N[C@@H](CC(C)C)C(=O)N[C@@H](CC(=O)O)C(=O)N[C@@H](CC(C)C)C(=O)N[C@@H](CC(C)C)C(=O)N[C@@H](Cc1c[nH]c2ccccc12)C(=O)N[C@@H](C)C(=O)O)[C@@H](C)O)[C@@H](C)O (stereo partly shown) [ICG-pHLIP] (H-AC(X1)DDQNPWRAYLDLLFPTDTLLLDLLWA-OH)
[1]; 5 min p.i.
  Concentration in blood, Mean ± St. D.: 2.28 ± 0.23 nmol
  Concentration in blood: 2.56 nmol and 2.09 nmol and 2.47 nmol and 2.02 nmol and 2.24 nmol
[1]; 1 hour p.i.
  Concentration in blood, Mean ± St. D.: 1.25 ± 0.35 nmol
  Concentration in blood: 1.40 nmol and 1.31 nmol and 1.73 nmol and 0.93 nmol and 0.88 nmol
[1]; 2 hours p.i.
  Concentration in blood, Mean ± St. D.: 0.59 ± 0.15 nmol
  Concentration in blood: 0.64 nmol and 0.40 nmol and 0.67 nmol and 0.47 nmol and 0.76 nmol
[1]; 4 hours p.i.
  Concentration in blood, Mean ± St. D.: 0.51 ± 0.07 nmol
  Concentration in blood: 0.41 nmol and 0.49 nmol and 0.57 nmol (2×) and 0.48 nmol
[1]; 6 hours p.i.
  Concentration in blood, Mean ± St. D.: 0.38 ± 0.06 nmol
  Concentration in blood: 0.41 nmol and 0.38 nmol and 0.32 nmol and 0.35 nmol and 0.46 nmol
[1]; 16 hours p.i.
  Concentration in blood, Mean ± St. D.: 0.12 ± 0.03 nmol
  Concentration in blood: 0.11 nmol and 0.13 nmol and 0.10 nmol and 0.16 nmol and 0.08 nmol
[1]; 26 hours p.i.
  Concentration in blood, Mean ± St. D.: 0.02 ± 0.01 nmol
  Concentration in blood: 0.02 nmol (3×) and 0.03 nmol (2×)
[1]; female, BALB/cAcNHsd, mouse, whole blood, intravenous, 0.5 mg/kg, two-phase kinetics, read-out: characteristic half lifetime of blood clearance, first phase (converted)
  half-life: 36 min
[1]; two-phase kinetics
  characteristic time for complete clearance of the blood, second phase: 7.5 h
  signal drop in first phase of blood clearance: 66%
Red blood cells (RBCs)
  RBC lysis: less than 2%
In vivo
  tissue uptake: 10 to 15 %ID/g
